Measurements: patent publication US12269859B2, “Synthetic immune receptors and methods of use thereof” (Angeles Therapeutics, Inc., priority 2016, dated 2025)

B1: 083116-F05 (protein)
chain: MALPVTALLLPLALLLHAARPLEGKPIPNPLLGLDSTGSGEDLKNVFPPEVAVFEPSKAEIAHTQKATLVCLATGFYPDHVELSWWVNGKEVHSGVCTDPQPLKEQPALNDSRYCLSSRLRVSATFWQNPRNHFRCQVQFYGLSENDEWTQDRAKPVTQIVSAEAWGRADCGITSASYHQGVLSATILYEILLGKATLYAVLVSALVLMAMVKRKDSRGRAKRSGSGATNFSLLKQAGDVEENPGPTSMALPVTALLLPLALLLHAARPDIQMTQSTSSLSASLGDRVTISCSASQGINNYLNWYQQKPDGTVELLIYYTSTLQSGVPSRFSGSGSGTDYSLTISNLEPEDIGTYYCQQYSKLPRTFGGGTKLEIKGGGGSGGGGSGGGGSQVQLQQSGSELMMPGASVKISCKATGYTFSNYWIEWVKQRPGHGLEWIGEILPGTGRTIYNEKFKGKATFTADISSNTVQMQLSSLTSEDSAVYYCARRDYYGNFYYAMDYWGQGTSVTVSSTREQKLISEEDLGSGTPFPSLAPPIMLLVDGKQQMVVVCLVLDVAPPGLDSPIWFSAGNGSALDAFTYGPSPATDGTWTNLAHLSLPSEELASWEPLVCHTGPGAEGHSRSTQPMHLSGEASTARTCPQEPLRGTPGGALWLGVLRLLLFKLLLFDLLLTCSCLCDPAGPLPSPATTTRLRALGSHRLHPATETGGREATSSPRPQPRDRRWGDTPPGRKPGSPVRAKRSGSGVKQTLNFDLLKLAGDVESNPGPSRSRGHMTEYKPTVRLATRDDVPRAVRTLAAAFADYPATRHTVDPDRHIERVTELQELFLTRVGLDIGKVWVADDGAAVAVWTTPESVEAGAVFAEIGPRMAELSGSRLAAQQQMEGLLAPHRPKEPAWFLATVGVSPDHQGKGLGSAVVLPGVEAAERAGVPAFLETSAPRNLPFYERLGFTVTADVEVPEGPRTWCMTRKPGA
modifications: Polynucleotide encoding a Synthetic Immune Receptor (SIR)
B2: 012517-G12 (protein)
chain: MALPVTALLLPLALLLHAARPLEGKPIPNPLLGLDSTGSGEDLKNVFPPEVAVFEPSKAEIAHTQKATLVCLATGFYPDHVELSWWVNGKEVHSGVCTDPQPLKEQPALNDSRYCLSSRLRVSATFWQNPRNHFRCQVQFYGLSENDEWTQDRAKPVTQIVSAEAWGRADCGITSASYHQGVLSATILYEILLGKATLYAVLVSALVLMAMVKRKDSRGRAKRSGSGATNFSLLKQAGDVEENPGPTSMALPVTALLLPLALLLHAARPDFVMTQSPDSLAVSLGERVTMSCKSSQSLLNSGNQKNYLTWYQQKPGQPPKLLIYWASTRESGVPDRFSGSGSGTDFTLTISSLQAEDVAVYYCQNDYSYPYTFGQGTKLEIKGGGGSGGGGSGGGGSQVQLVQSGAELKKPGASVKVSCKASGYTFTDYYMKWVRQAPGQGLEWIGDIIPSNGATFYNQKFKGRVTITVDKSTSTAYMELSSLRSEDTAVYYCARSHLLRASWFAYWGQGTLVTVSSTREQKLISEEDGSGIQNPDPAVYQLRDSKSSDKSVCLFTDFDSQTNVSQSKDSDVYITDKCVLDMRSMDFKSNSAVAWSNKSDFACANAFNNSIIPEDTFFPSSDVPCDVKLVEKSFETDTNLNFQNLSVIGFRILLLKVAGFNLLMTLRLWSSRAKRSGSGVKQTLNFDLLKLAGDVESNPGPSRGHMTEYKPTVRLATRDDVPRAVRTLAAAFADYPATRHTVDPDRHIERVTELQELFLTRVGLDIGKVWVADDGAAVAVWTTPESVEAGAVFAEIGPRMAELSGSRLAAQQQMEGLLAPHRPKEPAWFLATVGVSPDHQGKGLGSAVVLPGVEAAERAGVPAFLETSAPRNLPFYERLGFTVTADVEVPEGPRTWCMTRKPGA
B3: 072717-G01 (protein)
chain: MALPVTALLLPLALLLHAARPLEGKPIPNPLLGLDSTGSGEDLKNVFPPEVAVFEPSKAEIAHTQKATLVCLATGFYPDHVELSWWVNGKEVHSGVCTDPQPLKEQPALNDSRYCLSSRLRVSATFWQNPRNHFRCQVQFYGLSENDEWTQDRAKPVTQIVSAEAWGRADCGITSASYHQGVLSATILYEILLGKATLYAVLVSALVLMAMVKRKDSRGRAKRSGSGATNFSLLKQAGDVEENPGPTSMALPVTALLLPLALLLHAARPEFAVQLVESGGGLVQAGDSLRLTCTASGRAFSTYFMAWFRQAPGKEREFVAGIAWSGGSTAYADSVKGRFTISRDNAKNTVYLQMNSLKSEDTAVYYCASRGIEVEEFGAWGQGTQVTVSSPGGGGSPQVQLVESGGGLVQAGGSLRLSCAASGGTLSKNTVAWFRQAPGKERGFVASITWDGRTTYYADSVKGRFTISRDNAKNTVYLQMNSLKPEDTAVYVCADLGKWPAGPADYWGQGTQVTVSSEVAALEKEVAALEKEVAALEKEVAALEKTREQKLISEEDGSGIQNPDPAVYQLRDSKSSDKSVCLFTDFDSQTNVSQSKDSDVYITDKCVLDMRSMDFKSNSAVAWSNKSDFACANAFNNSIIPEDTFFPSSDVPCDVKLVEKSFETDTNLNFQNLSVIGFRILLLKVAGFNLLMTLRLWSSRAKRSGSGVKQTLNFDLLKLAGDVESNPGPSRGHMTEYKPTVRLATRDDVPRAVRTLAAAFADYPATRHTVDPDRHIERVTELQELFLTRVGLDIGKVWVADDGAAVAVWTTPESVEAGAVFAEIGPRMAELSGSRLAAQQQMEGLLAPHRPKEPAWFLATVGVSPDHQGKGLGSAVVLPGVEAAERAGVPAFLETSAPRNLPFYERLGFTVTADVEVPEGPRTWCMTRKPGA
B4: 012517-J12 (protein)
chain: MALPVTALLLPLALLLHAARPLEGKPIPNPLLGLDSTGSGEDLKNVFPPEVAVFEPSKAEIAHTQKATLVCLATGFYPDHVELSWWVNGKEVHSGVCTDPQPLKEQPALNDSRYCLSSRLRVSATFWQNPRNHFRCQVQFYGLSENDEWTQDRAKPVTQIVSAEAWGRADCGITSASYHQGVLSATILYEILLGKATLYAVLVSALVLMAMVKRKDSRGRAKRSGSGATNFSLLKQAGDVEENPGPTSMALPVTALLLPLALLLHAARPDIQMTQSPASLSASLGETVTIECRTSKDIYSNLAWFQQEPGNSPQLLIYDASNLADGVPSRFSGSGSGTQYSLQINNLQSEDVASYFCHQYNNYPYTFGTGTKLELKGGGGSGGGGSGGGGSQVQLQESGPTLVNPGDSVKMSCKASGYTFTDHIIHWVKQSHGKSLEWIGYINPYSGGANYNGKFKSKATLTIDKSSSTAYMEFSRLTSGDSAIYYCALNYGSYYAMDAWGQGTSVTVSSTREQKLISEEDGSGIQNPDPAVYQLRDSKSSDKSVCLFTDFDSQTNVSQSKDSDVYITDKCVLDMRSMDFKSNSAVAWSNKSDFACANAFNNSIIPEDTFFPSSDVPCDVKLVEKSFETDTNLNFQNLSVIGFRILLLKVAGFNLLMTLRLWSSRAKRSGSGVKQTLNFDLLKLAGDVESNPGPSRGHMTEYKPTVRLATRDDVPRAVRTLAAAFADYPATRHTVDPDRHIERVTELQELFLTRVGLDIGKVWVADDGAAVAVWTTPESVEAGAVFAEIGPRMAELSGSRLAAQQQMEGLLAPHRPKEPAWFLATVGVSPDHQGKGLGSAVVLPGVEAAERAGVPAFLETSAPRNLPFYERLGFTVTADVEVPEGPRTWCMTRKPGA
B5: 090116-H02 (protein)
chain: MALPVTALLLPLALLLHAARPLEGKPIPNPLLGLDSTGSGEDLKNVFPPEVAVFEPSKAEIAHTQKATLVCLATGFYPDHVELSWWVNGKEVHSGVCTDPQPLKEQPALNDSRYCLSSRLRVSATFWQNPRNHFRCQVQFYGLSENDEWTQDRAKPVTQIVSAEAWGRADCGITSASYHQGVLSATILYEILLGKATLYAVLVSALVLMAMVKRKDSRGRAKRSGSGATNFSLLKQAGDVEENPGPTSMALPVTALLLPLALLLHAARPDIQMTQSTSSLSASLGDRVTISCSASQGINNYLNWYQQKPDGTVELLIYYTSTLQSGVPSRFSGSGSGTDYSLTISNLEPEDIGTYYCQQYSKLPRTFGGGTKLEIKGGGGSGGGGSGGGGSQVQLQQSGSELMMPGASVKISCKATGYTFSNYWIEWVKQRPGHGLEWIGEILPGTGRTIYNEKFKGKATFTADISSNTVQMQLSSLTSEDSAVYYCARRDYYGNFYYAMDYWGQGTSVTVSSTREQKLISEEDGSGIQNPDPAVYQLRDSKSSDKSVCLFTDFDSQTNVSQSKDSDVYITDKCVLDMRSMDFKSNSAVAWSNKSDFACANAFNNSIIPEDTFFPSSDVPCDVKLVEKSFETDTNLNFQNLSVIGFRILLLKVAGFNLLMTLRLWSSRAKRSGSGVKQTLNFDLLKLAGDVESNPGPSRGHMTEYKPTVRLATRDDVPRAVRTLAAAFADYPATRHTVDPDRHIERVTELQELFLTRVGLDIGKVWVADDGAAVAVWTTPESVEAGAVFAEIGPRMAELSGSRLAAQQQMEGLLAPHRPKEPAWFLATVGVSPDHQGKGLGSAVVLPGVEAAERAGVPAFLETSAPRNLPFYERLGFTVTADVEVPEGPRTWCMTRKPGA
modifications: Synthetic Immune Receptor (SIR)
B6: 012517-M12 (protein)
chain: MALPVTALLLPLALLLHAARPLEGKPIPNPLLGLDSTGSGEDLKNVFPPEVAVFEPSKAEIAHTQKATLVCLATGFYPDHVELSWWVNGKEVHSGVCTDPQPLKEQPALNDSRYCLSSRLRVSATFWQNPRNHFRCQVQFYGLSENDEWTQDRAKPVTQIVSAEAWGRADCGITSASYHQGVLSATILYEILLGKATLYAVLVSALVLMAMVKRKDSRGRAKRSGSGATNFSLLKQAGDVEENPGPTSMALPVTALLLPLALLLHAARPDVLMTQTPVSLPVSLGGQVSISCRSSQSLVHSDGDTYLHWYLQKPGQSPQLLIYRVSNRFSGVPDRFSGSGSGTDFTLKISRVEPEDLGLYYCLQTTHFPPWTFGGGTKLEMKGGGGSGGGGSGGGGSQVQLQQSGPELRRPGSSVRLSCKASGYRIKDFLIHWIKNRPEHGLEWIGWIDPEDGETKYAQKFQTKATLTADTSSNTAYMQLSSLTSEDTATYFCARWGDVYYGLMRGHVMDAWGQGTSVTVSSTREQKLISEEDGSGIQNPDPAVYQLRDSKSSDKSVCLFTDFDSQTNVSQSKDSDVYITDKCVLDMRSMDFKSNSAVAWSNKSDFACANAFNNSIIPEDTFFPSSDVPCDVKLVEKSFETDTNLNFQNLSVIGFRILLLKVAGFNLLMTLRLWSSRAKRSGSGVKQTLNFDLLKLAGDVESNPGPSRGHMTEYKPTVRLATRDDVPRAVRTLAAAFADYPATRHTVDPDRHIERVTELQELFLTRVGLDIGKVWVADDGAAVAVWTTPESVEAGAVFAEIGPRMAELSGSRLAAQQQMEGLLAPHRPKEPAWFLATVGVSPDHQGKGLGSAVVLPGVEAAERAGVPAFLETSAPRNLPFYERLGFTVTADVEVPEGPRTWCMTRKPGA

System: target antigen-expressing cell line
Experiment: Jurkat NFAT-GFP assay, coculture with target cell lines expressing the respective target antigen (summary Table 10A)
Type: cell-based, human
Set-up: key: The signs +/−, +, 2+ etc. after the name of the cell lines indicate the relative degree of positivity on the Jurkat-NFAT-GFP assay as measured by the % GFP positive cells; +: relative degree of positivity on the Jurkat-NFAT-GFP assay as measured by the % GFP positive cells; 2+: relative degree of positivity on the Jurkat-NFAT-GFP assay as measured by the % GFP positive cells
Settings: for NFAT-GFP ASSAY Positive Cell lines: L428: SIR-expressing Jurkat-NFAT-GFP cells cocultured with L428
In short: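 Coculture of SIR-bearing Jurkat NFAT-GFP reporters with target cells, ~1:2 E:T, ~4–18 h. FACS quantified % GFP+ cells, ranked semi-quantitatively against parental Jurkat-NFAT-GFP.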

Row | Molecule | NFAT-GFP ASSAY Positive Cell lines (coculture with U266 cells) | NFAT-GFP ASSAY Positive Cell lines: L428 (relative % GFP positive cells) | also measured
1 | B1 | U266 (+/−) | – | –
2 | B2 | – | L428 (+/−) | –
3 | B3 | – | – | NFAT-GFP ASSAY Positive Cell lines: L363 (SIR-expressing Jurkat-NFAT-GFP cells cocultured with L363, relative % GFP positive cells): L363 (+/−), U266; NFAT-GFP ASSAY Positive Cell lines: U266 (SIR-expressing Jurkat-NFAT-GFP cells cocultured with U266, relative % GFP positive cells): (+/−)
4 | B4 | – | L428 (2+) | –
5 | B5 | L363 (+), U266 (+) | – | NFAT-GFP ASSAY Positive Cell lines (coculture with L363 cells): L363 (+), U266 (+)
6 | B6 | – | L428 (+) | –
